From US20200317768A1 (published 2020) come the findings set out here.

Holding throughout (test): SPR; FcgR bound per captured antibody, normalized to SG1
For orientation: SPR reads the build-up and loss of mass on a sensor chip optically.

Assay [1] has as its target T1, cynomolgus monkey FcγRIIa3 extracellular domain, C-terminal His-tag (cynomolgus monkey).
T1 construct: also called cyno FcγRIIa3; FcgRIIa3
T1 chain: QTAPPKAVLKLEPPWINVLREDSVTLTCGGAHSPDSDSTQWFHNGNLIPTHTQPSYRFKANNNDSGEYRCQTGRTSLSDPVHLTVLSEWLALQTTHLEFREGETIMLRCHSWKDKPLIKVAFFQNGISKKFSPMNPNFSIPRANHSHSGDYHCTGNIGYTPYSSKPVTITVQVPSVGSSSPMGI
The protocol: (§1) The kinetic analysis of interactions between these antibodies and FcγR was carried out using BIACORE® T200 or BIACORE® 4000 (GE Healthcare). HBS-EP+ (GE Healthcare) was used as the running buffer, and the measurement temperature was set to 25° C. A chip produced by immobilizing Protein A. Protein A/G or mouse anti-human IgG kappa light chain (BD Biosciences) onto a Series S Sensor Chip CM4 or CM5 (GE Healthcare) by the amine-coupling method was used. […] After the measurement, the antibody captured on the chip was washed off by allowing reaction with 10 mM glycine-HCl, pH1.5 and 25 mM NaOH so that the chip was regenerated and used repeatedly. The sensorgrams obtained as measurement results were analyzed by the 1:1 Langmuir binding model using the BIACORE® Evaluation Software to calculate the binding rate constant ka (L/mol/s) and dissociation rate constant kd (l/s), and the dissociation constant KD (mol/L) was calculated from these values. […] Regarding such interactions, KD values were calculated using the following 1:1 binding model described in BIACORE® T100 Software Handbook BR1006-48 Edition AE.
(§2) The value of the amount of FcγR binding was obtained by dividing the amount of FcγR bound by the amount of each antibody captured.

The target of assay [2] is T2, cynomolgus monkey FcγRIIa2 extracellular domain, C-terminal His-tag (cynomolgus monkey).
T2 construct: also called cyno FcγRIIa2; FcgRIIa2
T2 chain: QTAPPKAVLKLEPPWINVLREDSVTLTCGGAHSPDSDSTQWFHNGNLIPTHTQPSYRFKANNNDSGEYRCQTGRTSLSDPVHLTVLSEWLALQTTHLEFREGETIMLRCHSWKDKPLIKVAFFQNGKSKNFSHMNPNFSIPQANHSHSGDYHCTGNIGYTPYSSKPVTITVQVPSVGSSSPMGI
The protocol:
as §1, §2

Assay [3] addresses T3, cynomolgus monkey FcγRIIb extracellular domain, C-terminal His-tag (cynomolgus monkey).
T3 construct: also called cyno FcγRIIb; cynoFcγRIIb
T3 chain: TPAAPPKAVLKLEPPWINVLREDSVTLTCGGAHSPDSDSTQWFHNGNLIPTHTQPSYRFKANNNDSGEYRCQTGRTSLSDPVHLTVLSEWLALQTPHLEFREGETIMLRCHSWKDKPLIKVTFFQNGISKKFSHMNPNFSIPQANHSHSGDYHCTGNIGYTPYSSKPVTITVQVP
The protocol: as §1, §2

In assay [4] the target is T4, cynomolgus monkey FcγRIIa1 extracellular domain, C-terminal His-tag (cynomolgus monkey).
T4 construct: also called cyno FcγRIIa1; FcgRIIa1
T4 chain: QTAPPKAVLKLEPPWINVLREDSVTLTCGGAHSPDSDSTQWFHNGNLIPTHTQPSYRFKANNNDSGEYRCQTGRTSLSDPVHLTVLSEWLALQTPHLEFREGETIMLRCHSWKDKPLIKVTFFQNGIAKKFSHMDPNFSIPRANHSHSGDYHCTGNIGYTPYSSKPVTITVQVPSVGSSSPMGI
How it is done:
as §1, §2

B1: M103205H795-SG171/M103202L889-SK1 (antibody, human IgG1, kappa)
heavy: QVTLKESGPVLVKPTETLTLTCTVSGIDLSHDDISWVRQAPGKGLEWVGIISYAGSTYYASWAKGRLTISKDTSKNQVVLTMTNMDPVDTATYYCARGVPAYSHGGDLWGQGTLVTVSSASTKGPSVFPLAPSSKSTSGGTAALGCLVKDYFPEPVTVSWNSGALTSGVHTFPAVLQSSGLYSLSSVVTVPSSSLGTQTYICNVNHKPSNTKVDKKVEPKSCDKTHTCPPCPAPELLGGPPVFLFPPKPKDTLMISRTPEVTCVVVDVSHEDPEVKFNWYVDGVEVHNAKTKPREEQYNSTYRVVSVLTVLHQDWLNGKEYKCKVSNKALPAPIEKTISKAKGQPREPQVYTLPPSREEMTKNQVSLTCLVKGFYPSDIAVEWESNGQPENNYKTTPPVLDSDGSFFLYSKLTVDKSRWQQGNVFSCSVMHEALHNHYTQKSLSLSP
light: DIVMTQSPATLSLSPGERATLSCTSSQSVYHANWLSWFQQKPGQPPKLLIYWASTLAYGVPSRFSGSGSGTDFTLTISSLQPEDAATYYCAGGYGGGRYAFGQGTKVEIKRTVAAPSVFIFPPSDEQLKSGTASVVCLLNNFYPREAKVQWKVDNALQSGNSQESVTEQDSKDSTYSLSSTLTLSKADYEKHKVYACEVTHQGLSSPVTKSFNRGEC
notes: also called S239P
Consider B1, for which the “amount of FcgR binding (SG1 = 100)” value in assay [1] stood at 18 SG1 = 100; in assay [2] it was 20 SG1 = 100; in assay [3] it was 20 SG1 = 100; in assay [4], 17 SG1 = 100.

B2: M103205H795-SG165/M103202L889-SK1 (antibody, human IgG1, kappa)
heavy: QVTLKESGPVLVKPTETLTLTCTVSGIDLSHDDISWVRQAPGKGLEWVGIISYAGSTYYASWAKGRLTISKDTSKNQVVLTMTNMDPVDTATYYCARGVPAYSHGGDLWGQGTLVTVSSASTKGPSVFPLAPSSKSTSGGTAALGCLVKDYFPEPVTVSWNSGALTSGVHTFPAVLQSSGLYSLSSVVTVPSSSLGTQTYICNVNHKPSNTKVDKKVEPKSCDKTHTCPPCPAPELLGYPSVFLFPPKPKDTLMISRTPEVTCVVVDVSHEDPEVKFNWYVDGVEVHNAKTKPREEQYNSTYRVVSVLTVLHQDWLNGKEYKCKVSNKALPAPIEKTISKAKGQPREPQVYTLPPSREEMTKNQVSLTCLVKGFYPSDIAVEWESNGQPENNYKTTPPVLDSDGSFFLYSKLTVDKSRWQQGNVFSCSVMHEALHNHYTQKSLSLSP
light: DIVMTQSPATLSLSPGERATLSCTSSQSVYHANWLSWFQQKPGQPPKLLIYWASTLAYGVPSRFSGSGSGTDFTLTISSLQPEDAATYYCAGGYGGGRYAFGQGTKVEIKRTVAAPSVFIFPPSDEQLKSGTASVVCLLNNFYPREAKVQWKVDNALQSGNSQESVTEQDSKDSTYSLSSTLTLSKADYEKHKVYACEVTHQGLSSPVTKSFNRGEC
notes: also called G237Y
As to B2, the “amount of FcgR binding (SG1 = 100)” value in assay [1] came out at 30 SG1 = 100; in assay [2], 17 SG1 = 100; in assay [3], 30 SG1 = 100; in assay [4], 18 SG1 = 100.
